Laboratory results from patent US20140171373.

Key:
[1] = target: T1, z-VAD-fmk (benzyloxycarbonyl-Val-Ala-Asp-fluoromethylketone)
T1 chain: VAD

[2] = target: human tauP301L, full-length (from Tg4510 / rTg4510 mouse brain), P10636
[3] = target: human wild-type tau (tauWT), full-length, P10636
Sequence of human wild-type tau (tauWT), full-length, P10636 (P10636 other isoform, or with tags, fused parts or gaps): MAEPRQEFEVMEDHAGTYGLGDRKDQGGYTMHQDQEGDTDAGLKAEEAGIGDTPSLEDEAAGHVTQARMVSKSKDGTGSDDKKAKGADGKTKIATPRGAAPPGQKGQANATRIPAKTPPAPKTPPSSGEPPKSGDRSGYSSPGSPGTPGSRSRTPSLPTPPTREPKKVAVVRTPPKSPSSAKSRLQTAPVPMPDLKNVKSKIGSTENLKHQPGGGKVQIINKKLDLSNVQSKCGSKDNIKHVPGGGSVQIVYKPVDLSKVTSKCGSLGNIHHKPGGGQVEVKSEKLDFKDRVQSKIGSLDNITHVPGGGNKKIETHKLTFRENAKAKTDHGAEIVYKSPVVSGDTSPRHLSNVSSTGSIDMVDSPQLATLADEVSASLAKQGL

Sequence of tauD314E, P10636 (P10636 whole entry, looked up): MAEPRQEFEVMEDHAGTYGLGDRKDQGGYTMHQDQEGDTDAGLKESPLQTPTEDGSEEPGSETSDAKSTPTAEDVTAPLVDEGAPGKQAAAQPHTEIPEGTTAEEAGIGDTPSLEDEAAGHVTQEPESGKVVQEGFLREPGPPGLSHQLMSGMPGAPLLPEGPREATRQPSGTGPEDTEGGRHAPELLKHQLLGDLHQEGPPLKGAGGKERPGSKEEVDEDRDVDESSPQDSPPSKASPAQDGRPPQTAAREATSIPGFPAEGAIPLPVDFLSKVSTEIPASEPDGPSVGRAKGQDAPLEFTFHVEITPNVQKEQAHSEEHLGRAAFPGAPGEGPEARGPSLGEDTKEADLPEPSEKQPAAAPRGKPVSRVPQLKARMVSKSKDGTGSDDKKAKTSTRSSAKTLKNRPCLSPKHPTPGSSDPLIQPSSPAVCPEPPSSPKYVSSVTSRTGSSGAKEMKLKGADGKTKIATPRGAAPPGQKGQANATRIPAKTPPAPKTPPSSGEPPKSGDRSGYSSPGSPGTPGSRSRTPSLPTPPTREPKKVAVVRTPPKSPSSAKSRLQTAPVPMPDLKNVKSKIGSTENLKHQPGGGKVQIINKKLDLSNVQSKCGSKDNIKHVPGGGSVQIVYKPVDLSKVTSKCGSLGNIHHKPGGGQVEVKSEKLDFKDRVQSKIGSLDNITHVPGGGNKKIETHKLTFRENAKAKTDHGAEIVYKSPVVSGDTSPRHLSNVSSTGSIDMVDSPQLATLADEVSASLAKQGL
Sequence of human tauP301L, full-length (from Tg4510 / rTg4510 mouse brain), P10636 (P10636 whole entry, looked up): as above
Sequence of tauD314G, P10636 (P10636 whole entry, looked up): as above

B1: caspase-2 (protein)
chain 1: GPVCLQVKPCTPEFYQTHFQLAYRLQSRPRGLALVLSNVHFTGEKELEFRSGGDVDHSTLVTLFKLLGYDVHVLCDQTAQEMQEKLQNFAQLPAHRVTDSCIVALLSHGVEGAIYGVDGKLLQLQEVFQLFDNANCPSLQNKPKMFFIQACRGDET
chain 2: GKNHAGSPGCEESDAGKEKLPKMRLPTRSDMICGYACLKGTAAMRNTKRGSWYIEALAQVFSERACDMHVADMLVKVNALIKDREGYAPGTEFHRCKEMSEYCSTLCRHLYLFPGHPPT
- 35 kDa fragment after incubation with recombinant caspase-2 (tauD314G, P10636): generated a 35 kDa fragment only in the wild-type tau reaction (tauD314G: none)
- cleavage of tau by the caspase, Tau-13 immunoblot [1]: 50 µM z-VAD-fmk ... (+inhibitor), a general caspase inhibitor, blocked all cleavage
- cleavage of the FITC peptide substrate, LabChip [1]: Caspase inhibitor blocks caspase-2-mediated cleavage of Asp314 peptide substrate
- 35 kDa fragment on Tau-13 immunoblot after incubation with the caspase [2]: a 35 kDa fragment generated by co-incubating caspase-2 with full-length tau proteins purified from (A) brain lysates of Tg4510 mice expressing human tauP301L
- 35 kDa fragment after incubation with recombinant caspase-2 [3]: generated a 35 kDa fragment only in the wild-type tau reaction that comigrates with tau truncation mutant ΔC314
- 35 kDa fragment on Tau-13 immunoblot after incubation with the caspase [3]: a 35 kDa fragment generated by co-incubating caspase-2 with full-length tau proteins purified from ... (B) brain lysates of rTg21221 mice expressing human wild-type tau (tauWT) ... or (C) synthetic human tauWT
- 35 kDa fragment after incubation with recombinant caspase-2 (tauD314E, P10636): generated a 35 kDa fragment only in the wild-type tau reaction (tauD314E: none)
